Experimental data published in patent US9688732B2, “Extracellular matrix metalloproteinase inducer (EMMPRIN) peptides and binding antibodies” (Rappaport Family Institute for Research in the Medical …, priority 2012, dated 2017).

Molecular target: T1, Mouse recombinant EMMPRIN (mrEMMPRIN) (Mus musculus, UniProt P18572)
T1 construct: mrEMMPRIN is a chimeric protein composed of the extracellular portion of EMMPRIN fused to the Fc portion of human IgG; purchased R&D Systems
Assay: Indirect ELISA, specificity of the antibodies to EMMPRIN
Conditions: mrEMMPRIN 200 ng/ml coat; OD of Fc binding subtracted; n=4
Protocol: Indirect ELISA: This assay was developed to determine the specificity of the polyclonal antibodies for the EMMPRIN protein. Mouse recombinant EMMPRIN (mrEMMPRIN, 200 ng/ml in PBS, R&D Systems) or the Fc portion of the human IgG were applied on wells of a 96-well plate and incubated at 4° C. overnight to coat the wells. Excess antigens were removed by washing three times with wash buffer (0.05% Tween-20 in PBS), followed by blocking of the remaining free protein-binding sites with blocking buffer (1% BSA in PBS) for 2 hours at room temperature. After additional washes, strips of mouse recombinant EMMPRIN or Fc were coated with each of the primary antibodies (immune or pre-immune sera) diluted 1:500 and 1:5000 in PBS, and incubated for 2 hours at room temperature. […] The reaction was stopped with stop solution (0.25M HCL), and the absorbance of each well was measured at 450 nm and at a reference of 540 nm. […]
The specificity and ability of the antibodies to recognize mrEMMPRIN in its native structure were also tested by indirect ELISA, using mrEMMPRIN (200 ng/ml) or human IgG Fc protein (hFC, 200 ng/ml) to coat 96-well plates. […] P values were calculated by the Mann-Whitney T test. **, p<0.01, relative to pre-immune sera. […]

T1 sequence (P18572 with tags, fused parts or gaps isoform P18572-2 limits assumed): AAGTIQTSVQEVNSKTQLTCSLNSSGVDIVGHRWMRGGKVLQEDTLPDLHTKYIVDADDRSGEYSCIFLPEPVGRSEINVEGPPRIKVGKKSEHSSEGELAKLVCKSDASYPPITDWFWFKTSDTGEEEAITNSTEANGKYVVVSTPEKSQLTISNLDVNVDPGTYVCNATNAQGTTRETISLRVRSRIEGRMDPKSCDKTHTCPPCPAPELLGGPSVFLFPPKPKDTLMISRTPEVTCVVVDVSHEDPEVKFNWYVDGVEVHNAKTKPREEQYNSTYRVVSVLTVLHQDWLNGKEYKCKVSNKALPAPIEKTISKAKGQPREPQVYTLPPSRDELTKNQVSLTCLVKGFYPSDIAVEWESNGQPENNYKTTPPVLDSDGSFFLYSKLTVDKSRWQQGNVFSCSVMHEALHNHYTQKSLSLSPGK

Immune sera (OD values, indirect ELISA): 0.052 ± 0.026
Sequence: GHRWMRGGKVLC [Peptide 161, 12aa peptide from the EC-I domain of mouse EMMPRIN]
